From patent EP4803150A2 (Lyvgen Biopharma Holdings Limited, dated 2026)
Like-named read-outs stand apart in the source and are kept apart here.

T1: CD19 (human, UniProt P15391 20-556)
T1 construct: whole, on cells
T1 sequence (looked up): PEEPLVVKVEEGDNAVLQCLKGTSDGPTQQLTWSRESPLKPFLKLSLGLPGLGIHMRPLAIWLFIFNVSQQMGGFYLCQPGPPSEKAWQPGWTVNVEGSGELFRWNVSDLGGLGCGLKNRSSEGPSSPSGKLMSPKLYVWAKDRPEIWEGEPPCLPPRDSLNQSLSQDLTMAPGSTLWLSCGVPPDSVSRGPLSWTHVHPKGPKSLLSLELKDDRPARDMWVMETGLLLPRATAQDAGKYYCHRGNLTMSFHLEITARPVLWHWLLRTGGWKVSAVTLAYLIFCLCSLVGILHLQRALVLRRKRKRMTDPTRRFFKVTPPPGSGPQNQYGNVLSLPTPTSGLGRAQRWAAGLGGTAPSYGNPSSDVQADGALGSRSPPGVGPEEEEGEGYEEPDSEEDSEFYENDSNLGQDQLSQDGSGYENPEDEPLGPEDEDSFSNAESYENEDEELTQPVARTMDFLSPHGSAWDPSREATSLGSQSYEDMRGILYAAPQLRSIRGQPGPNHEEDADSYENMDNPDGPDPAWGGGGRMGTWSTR


Legend:
[1] = molecular target: T2, CD137 (human, UniProt Q07011 24-186); experiment: FCM or ELISA, graded
T2 construct: Whole on GS-H2-huCD137 reporter cells in the reporter assays; also called 4-1BB

[2] = molecular target: T1, CD19; experiment: CHO cells overexpressing CD19, graded
[3] = molecular target: T2, CD137; experiment: FCM or ELISA, graded; remark: listed apart in the source

Binder	binding result [1]	binding result [2]	binding result [3]
Ly2937 (multi-specific antibody, B7H3/CD3/CD137) chain 1: not shown chain 2: QVQLVQSGAEVKKPGASVKVSCKASGYTFTSYVMHWVRQKPGQGLEWIGYINPYNEGTESTDKFKGRATMTSDKSTSTVYMELSSLRSEDTAVYYCASIYYGYEGTYFGVWGQGTLVTVSSASTKGPSVFPLAPSSKSTSGGTAALGCLVKDYFPEPVTVSWNSGALTSGVHTFPAVLQSSGLYSLSSVVTVPSSSLGTQTYICNVNHKPSNTKVDKKVEPKSCGGGGSGGGGSGGGGSGGGGSQIVLTQSPAIMSASPGEKVTMTCSASSSVSYMNWYQQKSGTSPKRWIYDTSKLASGVPAHFRGSGSGTSYSLTISGMEAEDAATYYCQQWSSNPFTFGSGTKLEINGGGGSDKTHTCPPCPAPELLGPSVFLFPPKPKDTLMISRTPEVTCVVVDVSHEDPEVKFNWYVDGVEVHNAKTKPREEQYNSTYRVVSVLTVLHQDWLNGKEYKCKVSNKALGAPIEKTISKAKGQPREPQVYTLPPSREEMTKNQVSLSCAVKGFYPSDIAVEWESNGQPENNYKTTPPVLDSDGSFFLVSKLTVDKSRWQQGNVFSCSVMHEALHNRFTQKSLSLSPGKGGGGSGGGGSGGGGSGGGGSDIQMTQSPSSLSASVGDRVTITCRASQDIRSNLNWYQQKPGGAVKLLIYYTSRLHSGVPSRFSGSGSGTDYTLTISSLQPEDFATYFCQQSEKLPRTFGGGTKVEIR chain 3: EIVLTQSPATLSLSPGERATLSCRASSSVSYMHWYQQKPGQAPRPWIYATSNLASGIPARFSGSRSGTDYTLTISSLEPEDFAVYYCQQWSSNTLTFGGGTKVEIKRTVAAPSVFIFPPSDEQLKSGTASVVCLLNNFYPREAKVQWKVDNALQSGNSQESVTEQDSKDSTYSLSSTLTLSKADYEKHKVYACEVTHQGLSSPVTKSFNRGEC	binds		
Ly2940 (bispecific antibody, human IgG1, kappa, B7H3/CD137; anti-CD137 Fv on C-terminal) chain 1: QVQLVQSGAEVKKPGASVKVSCKASGYTFTSYVMHWVRQKPGQGLEWIGYINPYNEGTESTDKFKGRATMTSDKSTSTVYMELSSLRSEDTAVYYCASIYYGYEGTYFGVWGQGTLVTVSSASTKGPSVFPLAPSSKSTSGGTAALGCLVKDYFPEPVTVSWNSGALTSGVHTFPAVLQSSGLYSLSSVVTVPSSSLGTQTYICNVNHKPSNTKVDKKVEPKSCDKTHTCPPCPAPELLGPSVFLFPPKPKDTLMISRTPEVTCVVVDVSHEDPEVKFNWYVDGVEVHNAKTKPREEQYNSTYRVVSVLTVLHQDWLNGKEYKCKVSNKALGAPIEKTISKAKGQPREPQVYTLPPSREEMTKNQVSLWCLVKGFYPSDIAVEWESNGQPENNYKTTPPVLDSDGSFFLYSKLTVDKSRWQQGNVFSCSVMHEALHNHYTQKSLSLSPGKGGGGSGGGGSGGGGSGGGGSQVQLVQSGAEVKKPGASVKVSCKASGYTFAGFEMHWVRQAPGQGLEWMGAIDPKTGGTDYNQKFKDRVTMTRDTSISTAYMELSRLRSDDTAVYYCARDLGYFDVWGQGTLVTVSS chain 2: QVQLVQSGAEVKKPGASVKVSCKASGYTFTSYVMHWVRQKPGQGLEWIGYINPYNEGTESTDKFKGRATMTSDKSTSTVYMELSSLRSEDTAVYYCASIYYGYEGTYFGVWGQGTLVTVSSASTKGPSVFPLAPSSKSTSGGTAALGCLVKDYFPEPVTVSWNSGALTSGVHTFPAVLQSSGLYSLSSVVTVPSSSLGTQTYICNVNHKPSNTKVDKKVEPKSCDKTHTCPPCPAPELLGPSVFLFPPKPKDTLMISRTPEVTCVVVDVSHEDPEVKFNWYVDGVEVHNAKTKPREEQYNSTYRVVSVLTVLHQDWLNGKEYKCKVSNKALGAPIEKTISKAKGQPREPQVYTLPPSREEMTKNQVSLSCAVKGFYPSDIAVEWESNGQPENNYKTTPPVLDSDGSFFLVSKLTVDKSRWQQGNVFSCSVMHEALHNRFTQKSLSLSPGKGGGGSGGGGSGGGGSGGGGSDIQMTQSPSSLSASVGDRVTITCRASQDIRSNLNWYQQKPGGAVKLLIYYTSRLHSGVPSRFSGSGSGTDYTLTISSLQPEDFATYFCQQSEKLPRTFGGGTKVEIR chain 3: EIVLTQSPATLSLSPGERATLSCRASSSVSYMHWYQQKPGQAPRPWIYATSNLASGIPARFSGSRSGTDYTLTISSLEPEDFAVYYCQQWSSNTLTFGGGTKVEIKRTVAAPSVFIFPPSDEQLKSGTASVVCLLNNFYPREAKVQWKVDNALQSGNSQESVTEQDSKDSTYSLSSTLTLSKADYEKHKVYACEVTHQGLSSPVTKSFNRGEC	binds		
Ly2800 (multi-specific antibody, CD19/CD20/CD3/CD137) chain 1: QVQLQQPGAELVKPGASVKMSCKASGYTFTSYNMHWVKQTPGRGLEWIGAIYPGNGDTSYNQKFKGKATLTADKSSSTAYMQLSSLTSEDSAVYYCARSTYYGGDWYFNVWGAGTTVTVSAASVAAPSVFIFPPSDEQLKSGTASVVCLLNNFYPREAKVQWKVDNALQSGNSQESVTEQDSKDSTYSLSSTLTLSKADYEKHKVYACEVTHQGLSSPVTKSFNRGECGGGGSGGGGSGGGGSGGGGSEVQLVESGGGLVQPGGSLRLSCAASGFTFSTYAMNWVRQAPGKGLEWVGRIRSKYNNYATYYADSVKGRFTISRDDSKNSLYLQMNSLKTEDTAVYYCVRHGNFGNSYVSWFAYWGQGTLVTVSSGGGGSDKTHTCPPCPAPELLGPSVFLFPPKPKDTLMISRTPEVTCVVVDVSHEDPEVKFNWYVDGVEVHNAKTKPREEQYNSTYRVVSVLTVLHQDWLNGKEYKCKVSNKALGAPIEKTISKAKGQPREPQVYTLPPSREEMTKNQVSLWCLVKGFYPSDIAVEWESNGQPENNYKTTPPVLDSDGSFFLYSKLTVDKSRWQQGNVFSCSVMHEALHNHYTQKSLSLSPGKGGGGSGGGGSGGGGSGGGGSQVQLVQSGAEVKKPGASVKVSCKASGYTFAGFEMHWVRQAPGQGLEWMGAIDPKTGGTDYNQKFKDRVTMTRDTSISTAYMELSRLRSDDTAVYYCARDLGYFDVWGQGTLVTVSS chain 2: QVQLQQSGAELVRPGSSVKISCKASGYAFSSYWMNWVKQRPGQGLEWIGQIWPGDGDTNYNGKFKGKATLTADESSSTAYMQLSSLASEDSAVYFCARRETTTVGRYYYAMDYWGQGTTVTVSSASTKGPSVFPLAPSSKSTSGGTAALGCLVKDYFPEPVTVSWNSGALTSGVHTFPAVLQSSGLYSLSSVVTVPSSSLGTQTYICNVNHKPSNTKVDKKVEPKSCGGGGSGGGGSGGGGSGGGGSQAVVTQEPSLTVSPGGTVTLTCRSSTGAVTTSNYANWVQQKPGQAPRGLIGGTNKRAPWTPARFSGSLLGGKAALTITGAQAEDEADYYCALWYSNLWVFGGGTKLTVLGGGGSDKTHTCPPCPAPELLGPSVFLFPPKPKDTLMISRTPEVTCVVVDVSHEDPEVKFNWYVDGVEVHNAKTKPREEQYNSTYRVVSVLTVLHQDWLNGKEYKCKVSNKALGAPIEKTISKAKGQPREPQVYTLPPSREEMTKNQVSLSCAVKGFYPSDIAVEWESNGQPENNYKTTPPVLDSDGSFFLVSKLTVDKSRWQQGNVFSCSVMHEALHNHYTQKSLSLSPGKGGGGSGGGGSGGGGSGGGGSDIQMTQSPSSLSASVGDRVTITCRASQDIRSNLNWYQQKPGGAVKLLIYYTSRLHSGVPSRFSGSGSGTDYTLTISSLQPEDFATYFCQQSEKLPRTFGGGTKVEIR chain 3: QIVLSQSPAILSASPGEKVTMTCRASSSVSYIHWFQQKPGSSPKPWIYATSNLASGVPVRFSGSGSGTSYSLTISRVEAEDAATYYCQQWTSNPPTFGGGTKLEIKSSASTKGPSVFPLAPSSKSTSGGTAALGCLVKDYFPEPVTVSWNSGALTSGVHTFPAVLQSSGLYSLSSVVTVPSSSLGTQTYICNVNHKPSNTKVDKKVEPKSC chain 4: not shown		binds	binds
Ly2823 (multi-specific antibody, B7H3/CD3/CD137) chain 1: EVQLVESGGGLVKPGGSLKLSCEASRFTFSSYAMSWVRQTPEKRLEWVAAISGGGRYTYYPDSMKGRFTISRDNAKNFLYLQMSSLRSEDTAMYYCARHYDGYLDYWGQGTTLTVSSASTKGPSVFPLAPSSKSTSGGTAALGCLVKDYFPEPVTVSWNSGALTSGVHTFPAVLQSSGLYSLSSVVTVPSSSLGTQTYICNVNHKPSNTKVDKKVEPKSCGGGGSGGGGSGGGGSGGGGSEVQLVESGGGLVQPGGSLRLSCAASGFTFSTYAMNWVRQAPGKGLEWVGRIRSKYNNYATYYADSVKGRFTISRDDSKNSLYLQMNSLKTEDTAVYYCVRHGNFGNSYVSWFAYWGQGTLVTVSSGGGGSDKTHTCPPCPAPELLGPSVFLFPPKPKDTLMISRTPEVTCVVVDVSHEDPEVKFNWYVDGVEVHNAKTKPREEQYNSTYRVVSVLTVLHQDWLNGKEYKCKVSNKALGAPIEKTISKAKGQPREPQVYTLPPSREEMTKNQVSLWCLVKGFYPSDIAVEWESNGQPENNYKTTPPVLDSDGSFFLYSKLTVDKSRWQQGNVFSCSVMHEALHNHYTQKSLSLSPGKGGGGSGGGGSGGGGSGGGGSQVQLVQSGAEVKKPGASVKVSCKASGYTFAGFEMHWVRQAPGQGLEWMGAIDPKTGGTDYNQKFKDRVTMTRDTSISTAYMELSRLRSDDTAVYYCARDLGYFDVWGQGTLVTVSS chain 2: EVQLVESGGGLVKPGGSLKLSCEASRFTFSSYAMSWVRQTPEKRLEWVAAISGGGRYTYYPDSMKGRFTISRDNAKNFLYLQMSSLRSEDTAMYYCARHYDGYLDYWGQGTTLTVSSASTKGPSVFPLAPSSKSTSGGTAALGCLVKDYFPEPVTVSWNSGALTSGVHTFPAVLQSSGLYSLSSVVTVPSSSLGTQTYICNVNHKPSNTKVDKKVEPKSCGGGGSGGGGSGGGGSGGGGSQAVVTQEPSLTVSPGGTVTLTCRSSTGAVTTSNYANWVQQKPGQAPRGLIGGTNKRAPWTPARFSGSLLGGKAALTITGAQAEDEADYYCALWYSNLWVFGGGTKLTVLGGGGSDKTHTCPPCPAPELLGPSVFLFPPKPKDTLMISRTPEVTCVVVDVSHEDPEVKFNWYVDGVEVHNAKTKPREEQYNSTYRVVSVLTVLHQDWLNGKEYKCKVSNKALGAPIEKTISKAKGQPREPQVYTLPPSREEMTKNQVSLSCAVKGFYPSDIAVEWESNGQPENNYKTTPPVLDSDGSFFLVSKLTVDKSRWQQGNVFSCSVMHEALHNHYTQKSLSLSPGKGGGGSGGGGSGGGGSGGGGSDIQMTQSPSSLSASVGDRVTITCRASQDIRSNLNWYQQKPGGAVKLLIYYTSRLHSGVPSRFSGSGSGTDYTLTISSLQPEDFATYFCQQSEKLPRTFGGGTKVEIR chain 3: DIVMTQSHKFMSTSIGARVSITCKASQDVRTAVAWYQQKPGQSPKLLIYSASYRYTGVPDRFTGSGSGTDFTFTISSVQAEDLAVYYCQQHYGTPPWTFGGGTKLEIKRTVAAPSVFIFPPSDEQLKSGTASVVCLLNNFYPREAKVQWKVDNALQSGNSQESVTEQDSKDSTYSLSSTLTLSKADYEKHKVYACEVTHQGLSSPVTKSFNRGEC	binds		
